{"source": "paper PMC8591604", "about": "(Journal of Medicinal Chemistry, 2021)", "binders": {"B1": {"name": "P8, unlabeled IRS-1 pY1172 peptide, residues −2 to +5 (peptide)", "peptide": "Ac-LN[pY]IDLDL-NH2", "SMILES": "CC[C@H](C)[C@H](NC(=O)[C@H](Cc1ccc(OP(=O)(O)O)cc1)NC(=O)[C@H](CC(N)=O)NC(=O)[C@H](CC(C)C)NC(C)=O)C(=O)N[C@@H](CC(=O)O)C(=O)N[C@@H](CC(C)C)C(=O)N[C@@H](CC(=O)O)C(=O)N[C@@H](CC(C)C)C(N)=O", "notes": "IRS-1, residues −2 to +5 around pY1172 (rat numbering; P9 without residue −3); source: synthetic peptide"}}, "biological_target": "T1, N-SH2 domain of SHP2 (residues 2–111) (human, UniProt Q06124 2-111)", "T1 construct": "SHP2 (PTPN11), human, N-terminal SH2 domain, residues 2-111; also called wild-type N-SH2; source: E. coli (DE3) Rosetta2, purified (Ni-NTA)", "T1 sequence (looked up)": "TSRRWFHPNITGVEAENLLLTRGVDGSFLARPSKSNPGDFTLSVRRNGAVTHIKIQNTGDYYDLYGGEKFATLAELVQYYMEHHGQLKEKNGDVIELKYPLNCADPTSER", "assay": "fluorescence polarisation; fluorescence anisotropy, displacement: 1.0 nM CF-P9 with 40 nM N-SH2 titrated with unlabelled peptide; fluorescence buffer", "settings": "both partners purified", "note": "[ ]: non-standard residue; d: D form. pY = N[C@@H](Cc1ccc(OP(=O)(O)O)cc1)C(=O)O"}
{"binder": "B1", "values": [{"measurement": "binding result", "result": "binds"}]}
